Measured values published in US9096646B2, “CXCR4 receptor compounds” (priority 2008, dated 2015).
Values joined by “and” are separate entries in the source; they are usually repeats but may differ in a detail not shown here. Identical values can stand only once. Like-named read-outs stand apart in the source and are kept apart here. Peptide text beside a SMILES is read from it. * marks the point of attachment. Palmitoyl = CCCCCCCCCCCCCCCC(=O)*

What was measured:
[1] = biological target: T1, CXCR4 (Homo sapiens, UniProt P61073); assay: Chemotaxis assay using SUP B-15 cells; type: cell-based; set-up: A similar procedure was followed for chemotaxis using SUP B-15 cells; endogenous in cells; host or cells: SUP B-15 cells; details: for AUC (% of vehicle) / Max (% of vehicle) / Peak Test Comp.: Table 19, i2 loop, SUPB-15 cells, conc 1.0 uM; for activity at 1 µM: SUP-B15, Table 18, i1 loop, SUP B-15 cells, drug conc 1.0 uM
Text: Chemotaxis assays were utilized to determine the effect of compound on the directed migration of cells in response to chemokine. Cells that express a receptor of interest were placed in the upper chamber of a Transwell chemotaxis plate (Corning) and allowed to migrate through a polycarbonate membrane to a lower chamber containing the appropriate receptor-specific ligand. To test for antagonist or potentiating activity, cells were mixed with the desired concentration of compound prior to addition to the upper chamber. Conversely, agonist activity was determined by adding compound in the bottom chamber only without endogenous chemokine. The effect of compound is quantified by several parameters, including the extent of maximum response, the shift of agonist dose-response curves, and the area under the curve.
To measure the CXCR4-dependent migration of cells, the appropriate concentration of CXCL12 (SDF1a) or test compound was diluted in phenol red-free RMPI-1640/20 mM HEPES/0.5% BSA buffer and placed in the bottom chamber of a transwell apparatus. CCRF-CEM cells, a human T-cell ALL line that endogenously expresses CXCR4, were washed twice in buffer and resuspended at 133,000 cells/ml. A 75 μl sample of this suspension is mixed with the test compound of interest and placed in the upper chamber of a 5-micron transwell apparatus.
To initiate cell migration, the assembled transwell plate was placed in a 37° C., […] incubator for a specified time interval, typically between 30 and 120 minutes. After incubation, the unit was disassembled and the lower chamber placed at −80° C. overnight to facilitate lysis of cells. To quantify migrated cells, plates were thawed at 37° C. in a humidified chamber, and then a sample volume was removed from each well and mixed with an equal volume of CyQuant (Invitrogen) working solution in opaque plates. The fluorescence intensity of each well represents the DNA content and is directly proportional to cell number. Each sample was typically run in duplicate or triplicate and each plate included two separate negative controls. The plate background control, which included no cells in the upper chamber, was subtracted from all values. The negative control had no agonist added in the lower chamber, and served to establish the baseline for random migration. A similar procedure was followed for chemotaxis using SUP B-15 cells.

[2] = biological target: T1, CXCR4; assay: Chemotaxis assay, effect on SDF1-a (CXCL12) induced migration of CCRF-CEM cells; type: cell-based; set-up: a human T-cell ALL line that endogenously expresses CXCR4; endogenous in cells; host or cells: CCRF-CEM (human T-cell ALL line); details: for AUC (% of vehicle) / Max (% of vehicle) / Peak Test Compound: Table 20, i3 loop, CEM cells
Method: To initiate cell migration, the assembled transwell plate was placed in a 37° C., 0.5% CO2 incubator for a specified time interval, typically between 30 and 120 minutes. After incubation, the unit was disassembled and the lower chamber placed at −80° C. overnight to facilitate lysis of cells. To quantify migrated cells, plates were thawed at 37° C. in a humidified chamber, and then a sample volume was removed from each well and mixed with an equal volume of CyQuant (Invitrogen) working solution in opaque plates. The fluorescence intensity of each well represents the DNA content and is directly proportional to cell number. […] The plate background control, which included no cells in the upper chamber, was subtracted from all values.

T1 sequence (P61073 whole entry): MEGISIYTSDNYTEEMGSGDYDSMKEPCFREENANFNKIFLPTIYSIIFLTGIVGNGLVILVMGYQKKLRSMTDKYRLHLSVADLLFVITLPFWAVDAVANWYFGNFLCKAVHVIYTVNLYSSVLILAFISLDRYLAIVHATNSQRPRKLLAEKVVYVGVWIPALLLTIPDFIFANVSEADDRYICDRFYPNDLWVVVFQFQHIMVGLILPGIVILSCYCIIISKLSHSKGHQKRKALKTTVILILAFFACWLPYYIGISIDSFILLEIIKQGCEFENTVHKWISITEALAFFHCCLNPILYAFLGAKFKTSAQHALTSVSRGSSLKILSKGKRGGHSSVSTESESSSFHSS

## 74 (DRYLAIVHATNSQRPRKLL) [Compound 74]
[1]
  AUC (% of vehicle): 90.39 % of vehicle and 77.13 % of vehicle
  Max (% of vehicle): 91.29 % of vehicle and 75.81 % of vehicle
  Peak Test Comp.: 5 nM

## 78 (Palmitoyl-VHATNSQRPRKLLA-NH2; not fully specified) [Compound 78]
[1]
  AUC (% of vehicle): 71.85 % of vehicle
  Max (% of vehicle): 72.31 % of vehicle
  Peak Test Comp.: 5 nM

## 79 (Palmitoyl-HATNSQRPRKL-NH2; not fully specified) [Compound 79]
[1]
  AUC (% of vehicle): 109.36 % of vehicle
  Max (% of vehicle): 109.68 % of vehicle
  Peak Test Comp.: 5 nM

## 80 (Palmitoyl-HATNSQRPRKLLA-NH2; not fully specified) [Compound 80]
[1]
  AUC (% of vehicle): 102.2 % of vehicle
  Max (% of vehicle): 69.02 % of vehicle
  Peak Test Comp.: 5 nM

## 81 (Palmitoyl-HATNSQRPRKLLAE-NH2; not fully specified) [Compound 81]
[1]
  AUC (% of vehicle): 79.85 % of vehicle
  Max (% of vehicle): 76.46 % of vehicle
  Peak Test Comp.: 5 nM

## 82 (Palmitoyl-HATNSQRPRKLLAEK-NH2; not fully specified) [Compound 82]
[1]
  AUC (% of vehicle): 124.56 % of vehicle
  Max (% of vehicle): 126.31 % of vehicle
  Peak Test Comp.: 1 nM

## 83 (Palmitoyl-HATNSQRPRKLLAEKV-NH2; not fully specified) [Compound 83]
[1]
  AUC (% of vehicle): 126.36 % of vehicle
  Max (% of vehicle): 110.06 % of vehicle
  Peak Test Comp.: 5 nM

## CCCCCCCCCCCCCCCC(=O)N[C@@H](CCSC)C(=O)NCC(=O)N[C@@H](Cc1ccc(O)cc1)C(=O)N[C@@H](CCC(N)=O)C(=O)N[C@@H](CCCCN)C(=O)N[C@@H](CCCCN)C(=O)N[C@@H](CC(C)C)C(=O)N[C@@H](CCCNC(=N)N)C(=O)N[C@@H](CO)C(=O)N[C@@H](CCSC)C(=O)N[C@H](C(=O)N[C@@H](CC(=O)O)C(=O)N[C@@H](CCCCN)C(=O)N[C@@H](Cc1ccc(O)cc1)C(=O)N[C@@H](CCCNC(=N)N)C(=O)N[C@@H](CC(C)C)C(N)=O)[C@@H](C)O [Compound 38, Pal-MGYQKKLRSMTDKYRL-amide] (Palmitoyl-MGYQKKLRSMTDKYRL-NH2)
[1]; read-out: AUC (% of)
  activity at 1 µM: 32.4%
[1]; read-out: Max (% of)
  activity at 1 µM: 49.6%

## CCCCCCCCCCCCCCCC(=O)N[C@@H](Cc1ccc(O)cc1)C(=O)N[C@@H](CCC(N)=O)C(=O)N[C@@H](CCCCN)C(=O)N[C@@H](CCCCN)C(=O)N[C@@H](CC(C)C)C(=O)N[C@@H](CCCNC(=N)N)C(=O)N[C@@H](CO)C(=O)N[C@@H](CCSC)C(=O)N[C@H](C(=O)N[C@@H](CC(=O)O)C(=O)N[C@@H](CCCCN)C(=O)N[C@@H](Cc1ccc(O)cc1)C(=O)N[C@@H](CCCNC(=N)N)C(=O)N[C@@H](CC(C)C)C(=O)N[C@@H](Cc1cnc[nH]1)C(=O)N[C@@H](CC(C)C)C(=O)N[C@@H](CO)C(=O)N[C@H](C(N)=O)C(C)C)[C@@H](C)O [Compound 40] (Palmitoyl-YQKKLRSMTDKYRLHLSV-NH2)
[1]; read-out: AUC (% of)
  activity at 1 µM: 71.9%
[1]; read-out: Max (% of)
  activity at 1 µM: 71.2%

## CCCCCCCCCCCCCCCC(=O)N[C@@H](CCCCN)C(=O)N[C@@H](CCCCN)C(=O)N[C@@H](CC(C)C)C(=O)N[C@@H](CCCNC(=N)N)C(=O)N[C@@H](CO)C(=O)N[C@@H](CCSC)C(=O)N[C@H](C(=O)N[C@@H](CC(=O)O)C(=O)N[C@@H](CCCCN)C(=O)N[C@@H](Cc1ccc(O)cc1)C(=O)N[C@@H](CCCNC(=N)N)C(=O)N[C@@H](CC(C)C)C(=O)N[C@@H](Cc1cnc[nH]1)C(=O)N[C@@H](CC(C)C)C(N)=O)[C@@H](C)O [Compound 42] (Palmitoyl-KKLRSMTDKYRLHL-NH2)
[1]; read-out: AUC (% of)
  activity at 1 µM: 43.8%
[1]; read-out: Max (% of)
  activity at 1 µM: 33.5%

## CCCCCCCCCCCCCCCC(=O)N[C@@H](CCCCN)C(=O)N[C@@H](CCCCN)C(=O)N[C@@H](CC(C)C)C(=O)N[C@@H](CCCNC(=N)N)C(=O)N[C@@H](CO)C(=O)N[C@@H](CCSC)C(=O)N[C@H](C(=O)N[C@@H](CC(=O)O)C(=O)N[C@@H](CCCCN)C(=O)N[C@@H](Cc1ccc(O)cc1)C(=O)N[C@@H](CCCNC(=N)N)C(=O)N[C@@H](CC(C)C)C(N)=O)[C@@H](C)O [Compound 44, Pal-KKLRSMTDKYRL-amide] (Palmitoyl-KKLRSMTDKYRL-NH2)
[1]; read-out: AUC (% of)
  activity at 1 µM: 25.9%
[1]; read-out: Max (% of)
  activity at 1 µM: 31.5%

## Pal-KLSHSKGHQKRKALKTTV-amide (Palmitoyl-KLSHSKGHQKRKALKTTV-NH2; SMILES CCCCCCCCCCCCCCCC(=O)N[C@@H](CCCCN)C(=O)N[C@@H](CC(C)C)C(=O)N[C@@H](CO)C(=O)N[C@@H](Cc1c[nH]cn1)C(=O)N[C@@H](CO)C(=O)N[C@@H](CCCCN)C(=O)NCC(=O)N[C@@H](Cc1c[nH]cn1)C(=O)N[C@@H](CCC(N)=O)C(=O)N[C@@H](CCCCN)C(=O)N[C@@H](CCCNC(=N)N)C(=O)N[C@@H](CCCCN)C(=O)N[C@@H](C)C(=O)N[C@@H](CC(C)C)C(=O)N[C@@H](CCCCN)C(=O)N[C@H](C(=O)N[C@H](C(=O)N[C@H](C(N)=O)C(C)C)[C@@H](C)O)[C@@H](C)O) [Compound 90]
[2]; conc 0.01 uM
  AUC (% of vehicle): 171.8 % of vehicle
  Max (% of vehicle): 156.08 % of vehicle
  Peak Test Compound: 0.16 nM
[2]; conc 0.03 uM
  AUC (% of vehicle): 217.53 % of vehicle
  Max (% of vehicle): 202.16 % of vehicle
  Peak Test Compound: 0.16 nM
[2]; conc 0.1 uM
  AUC (% of vehicle): 175.95 % of vehicle
  Max (% of vehicle): 157.79 % of vehicle
  Peak Test Compound: 0.03 nM
[2]; conc 0.3 uM
  AUC (% of vehicle): 129.83 % of vehicle
  Max (% of vehicle): 113.68 % of vehicle
  Peak Test Compound: 0.16 nM
[2]; conc 1.0 uM
  Max (% of vehicle): 131.59 % of vehicle and 76.8 % of vehicle
  Peak Test Compound: 0.16 nM
[2]; conc 3.0 uM
  AUC (% of vehicle): 152.75 % of vehicle
  Max (% of vehicle): 114.49 % of vehicle
  Peak Test Compound: 0.16 nM

## Pal-SKLSHSKGHQKRKALKTTVIL-amide (Palmitoyl-SKLSHSKGHQKRKALKTTVIL-NH2; SMILES CCCCCCCCCCCCCCCC(=O)N[C@@H](CO)C(=O)N[C@@H](CCCCN)C(=O)N[C@@H](CC(C)C)C(=O)N[C@@H](CO)C(=O)N[C@@H](Cc1c[nH]cn1)C(=O)N[C@@H](CO)C(=O)N[C@@H](CCCCN)C(=O)NCC(=O)N[C@@H](Cc1c[nH]cn1)C(=O)N[C@@H](CCC(N)=O)C(=O)N[C@@H](CCCCN)C(=O)N[C@@H](CCCNC(=N)N)C(=O)N[C@@H](CCCCN)C(=O)N[C@@H](C)C(=O)N[C@@H](CC(C)C)C(=O)N[C@@H](CCCCN)C(=O)N[C@H](C(=O)N[C@H](C(=O)N[C@H](C(=O)N[C@H](C(=O)N[C@@H](CC(C)C)C(N)=O)[C@@H](C)CC)C(C)C)[C@@H](C)O)[C@@H](C)O) [Compound 88]
[2]; 30 nM of compound
  positive allosteric modulation of the SDF1-a dependent chemotactic response (RFU): induces a positive SDF1-a mediated chemotactic response
[2]; conc 0.01 uM
  AUC (% of vehicle): 172.33 % of vehicle
  Max (% of vehicle): 156.08 % of vehicle
  Peak Test Compound: 0.03 nM
[2]; conc 0.03 uM
  AUC (% of vehicle): 226.59 % of vehicle
  Max (% of vehicle): 202.16 % of vehicle
  Peak Test Compound: 0.03 nM
[2]; conc 0.1 uM
  AUC (% of vehicle): 183.19 % of vehicle
  Max (% of vehicle): 157.79 % of vehicle
  Peak Test Compound: 0.03 nM
[2]; conc 0.3 uM
  AUC (% of vehicle): 131.2 % of vehicle
  Max (% of vehicle): 113.68 % of vehicle
[2]; conc 1.0 uM
  AUC (% of vehicle): 143.61 % of vehicle
  Max (% of vehicle): 131.59 % of vehicle
  Peak Test Compound: 0.8 nM
[2]; conc 3.0 uM
  AUC (% of vehicle): 116.49 % of vehicle
  Max (% of vehicle): 114.49 % of vehicle
  Peak Test Compound: 0.8 nM
